Measured values as given in the NTF2 design screens of Basanta et al. (2020).

Test: protease stability score; higher = more stable; yeast display proteolysis, trypsin and chymotrypsin;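 also: relative to predicted unfolded state with 0 unfolded-like and 1 meaning tenfold more protease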

Sequence	protease stability score
HEHEELLREYVERLLEIWRTGDEEKFMKNADPNVRIVYGDKDVHGREIWVEHFKRLFEELGFKYIDLRRVELINGVLHVHGNWNVNGRERKTELEFKIIDGRITSVQIRVH	1.27
HEHEEMSELWLRIFERSVDTGDWNTLIELADPNVRQDYNGREYHGRESFVHTMREDIHRADHIEFHIDRFRVIGDKLDIDGTIIIRINGQTLIYRSHLHILKYDGRWIIKEVRFK	1
HEHEKWMEELVRRLKHHLRTGDFETWKELADPNAKVQLVVGDKHVESIGREEMEKWFHDHMMRLGIERFEFNIQSIYVQGEKIHLLGRLHFNGQDERAEIILVVVNGRIKQIHFHLH	1.2
HEHEQQVREIAKKLLHALLTGDEDEIYRLIDPNVRLIILVGDKEIHVHGRELVSEVMHKLFRELGVDHWHSRSELLIGNKFHVDTEQHFNGQTFETQVHILVIDGKVHLLTLQIH	1.88
HEHKEEVDELISMALESMHTGDEETWYRMADPHVRMDVNGQDIHGREEVSEIYVHWLREAGVKHIKIEDVKVINGRVDLHIFSKVNGRFFEYRLISEKIDGQWHIKSVRIL	0.399
HEHTKMLLDMHRLWMELWLTGDEHELEKLLDPNVRIIIHVNGVDISIHGRETVRRVLRHEIKRYDHLEINLKRHSAYDGKVESDTEFRVIFDGKRIELDTRIKNIVINGRTKEWIFELE	0.619
HEIDEWSEEWKHELIHNLRTGDEHRLKELADPHTRIIIDGREIHGMDFALKLIHKRVMEMRHKEFHIRRIDHQGEKIVMDVEVRVNFNGREDSVNFRIISEKFNGRWIIHYITLI	1.49
HEIEEEVENAVRLISHLLLTGDEETLHDLADPEMRTIVGDKHLHGREMWSEVIRRLGVDVLVIKEIRVQGDWIHSDGVLLVNGQERDAKIHVRKVNGKWVITTFQLK	1.8
HEIEEIARHINNIWEERSRTGDFRHFTTLLDPHARIDINGVELHGRELWMSRVYHHFQSHGIEYSVHTKHIEVFDGRVHLHGELFFHFNGVDITIRTHHTMRKVDGRWFVEQIIVH	0.468
HEIHELLKRVVDMLRTLWETGDEETWNSLADPNTKFVIGDKEVVGMEEITRIFLHERERADHMKFEVRRIRTVGDKADSHGHLRLDIGNKHVTHEIDLHVRVINGRIKQVELRIH	1.33
HEKEHRLHEIMELWLKLVQTGNEEILMELADPHTKLDIGDKHLHGRELTSRFLLHMRIEDLTIKRIDVQGDYAHIDGHVIGVINGRRFISDRHIHLDIYNGKHRRVEVRIE	1.01
HEKEKLEKDIWRLLVEWLETGNEHEFEKFMDPDARLFEDVDGKELRIHGREIAMEILHHLWRDFGVDHLVLKKASIIDGVVHLDVILDVNGRRIDTRIIFVIINGRIHSTHIHIR	1.52
HEKKEAYDYMVEILWKAMHTGDEKTLKHLFDPHTKVTQGDFEIHGMEQFSEHLKHARYRRVRVKFEDSHTQGEKVRMHTRLEFEGEIDGKRDTLEFETHQIVTKIDGRWVFESLEIE	0.7
HELDELTERTVKLFRDSSYTGDEDTLEDLADPNYRFVIDGKILMGREWVTRSLREWRVEDFRIHSVDLQGDKAHVDITVKGKFNGRFRTTRQEMVMMKVDGVWYFHSLTIR	0.521
HELEEEAKRAADIWFENLLTGDFDSLRKLVDPHVRMNYNGQEYHGWEEVIRFWKEYLDKVKNLQFHRHHVDVQGEKTTIDTRHIINGRSSEVEIRLLVINGRIQSNEVHEN	1.14
HELEERLEKWFKKFLHNMMTGDEDKLIHLADPHAKFRIDGVESHGRENWSRYVEERHLKLGLENIHVNVHRVHVQGDKIDMTGTLEINGQRVDFHIHIEVVDGRIKRLIIIIE	0.732
HELEHELEKFMQWIIEFLETGDEDALSTLLDPNVRYVINGQNLHGRSLLITTLHRLKEEIRVHWKIRDLKIQGDKAHSDGRFTIIVNGRKHSVDSHINVTIVDGRIHRVEIELR	1.7
HELKEELDEKLEFILRVFRTGNEERWRRLFDPEVRIEVGDKEIHGMDEALHFASHMRVEFKEMNFEDIRIVGEWVTLHIRVRGTIVYNGKKVERSMHIIIIILKIDGKWHIHEFRIH	1.44

Sequence	protease stability score
HELLEHVKKIIEMWNKLLHTGDEETLNKLLDPRVRIHVNGRELIGREAVETELREIRFEITYTHVKEVDVVGDKVHVNTLLDGEFRIGNFVIRTRTDARLHLLKVDGKWLLESLHVT	1.24
HELLEIIHRVAQMIYENLLTGNEDLFEHLADPNRRLLVNGVDLVGWERVVKWEKEMRIHDHRLRDESMTRQGDKAFVHHRTELRGDINGREIHTETKLNIVIRKIDGKWIVERIEVRID	0.81
HELLKLVEEMARITVKLFMTGDWKTFKHLADPHVREIINGRTVHGMEKVVEHRKEFKEELWIESITIHDVEVQGEKAHLNTKLIGHVNGREVEVEIYVNIEIINGRWNLVEIDIR	1.76
HELQEEATRFIKEFQEAVRTGDWRLWKKQLDPHVRLDIDGRHYHGRDIVLEFLRELEDKMGIERENVHIEHIDFQGDKVIVHSKEHGIVNGQRFDDKSSSIVLKINGQWTLHSVKIR	1.19
HELVEEAITMWKEMLVDELTGDEKKTSQNLDPNYKMVIDGQEIHGMEEWSRFLKEIRLHHEDFHVKDARVIDGRVKIDGHIKGTLEINGKRTRTETDVHIILIKINGRWVTHSVHFK	1.24
HEMEEMEELAFRLIEESIRTGDFTTLEDLFDPDTRIIIGDKDLHGREALRHLRERIDHLKELRVHRRTFIGDWLDMNLHMTGNVNGVEHRRDVRFIIWKINGQWRIHSVYEV	1.38
HEMKEESEKAVRLMVHLFKTGDEETIYRMADPNARFFFDGRHIHGMDHVFREVLRLEREYGVKHFELRDMELRIFDGRIFLHIDGVEEFNGRRLETHLHFESRKIDGRWHFQSESIVLR	0.317
HEMQEEAHIATELIIDTFKTGDEKKMRELFDPTPRLHQGDKRFHGREEVVHIISERIHRFGFNHIEVKTVRVQGDFIIVHGEKDVNGQRVEVILHIWKYDGRWEVHRIEIR	1.23
HENEEAAEHIFELFLDSLRTGDPDVVERLLDPHVKLDINGVEFHGREEAVHILMEEWKRLGIDHFEIKRIELRVYNGVVHIEIDSRTQVNGQKHHTKYRIIVIKINGRWHVNLLYIYIE	2.12
HENEENETEAIRLFLRVMLTGDEHDLKRMFDPDMKVEIGDKRIVGRERVLEHWLHTAERFGLTNIYLQLDHVRVINGRVDIDFHVRFNGRTERVHLHILKINGKWIVEHLEVR	1.36
HENEHRMKEFVREVFDLRRTGNWEQLQELFDPNVRIEIGDKRYHGWENLSHFLLHARQDMHIEVTSVEVQGDKIIADGRLEYTLRVGDKDVTYDHRTIIIAHKFNGKWFFTTERIK	1.33
HEQDEAWDVINRDLAQSIETGDEHTERELLDPNVRIDFDGVKLHGRDEWHDFVRKELEHLGVDRIDIRIEIHNSKYQGEKVDSDTELKIRYGDKHVRIKTRLILHKIDGRWLVKSIQIN	1.1
HEQEKFVREYFELWVRAFLTGDEDTILDMMDPDVRIIYGDKTVVGWKELHKFLKRVDHARIKFEFRNTRYDENEAEVDGHRIVHLFFDGKIFDITTQIHVHMVKIDGVWTMKTIVNK	1.55
HEREEWSENAFRMILRSLMTGDERTLYELADPNVRLDVNGQDYHGREDFLHFYTHFLFRADHVELILRRERPVGDKLELDGELVSRVGDKTHHVEVRIVLWKVNGRWLIHSVYII	1.81
HEREHLLERMLKLLLELLLTGDEDTWKHYLDPHTRVIFNGREEHGRTAFERFVKELGVDHIEFKHVEIRHIGDKVHLHVDARVEINGRKHNMHLHIHLRKIDGQWEVKEFRIEIE	1.27
HERERMLEVALRLFIETMRTGDEKITSELADPNVKIHIGDKTDHGRESFTNFFEEMGADHVNVHDVEVQGDKVKTDIRIQIGDKMVESILYVKKVNGRWLIRSIEIR	1.05
HERQKEMETLVELFDEEWLTGNEQTHRRLADPHMKLDVNGKTYHGWKQYNKHLQDFLKRIDHVELEIKRIRVQGEYAHSDGTLRMHYNGVTEERNVHVEINIIDGRLKSVHLKVE	1.1
HESDKLVDEIFKTFIHAIVTGDEETLKTMLDPNTKFILIYGDKYHEHHGWRDLIRWLREIRIREIIHRHVENQGDKVHHEGELRGEFNGKEIRTEIHIHMVVVNGKLRRMEWEIK	2.07
